According to publication PMC8897509 (Nature Communications, 2022):

Columns and labels:
ubiquitin [1] = target: T1, ubiquitin (UniProt P0CG48 1-76); assay: crystal structure; UbArk2C fusion alone, 2.5 Å, PDB 7R70; crystals from 1.6 M Na3Citrate, 16 °C; two copies in the asymmetric unit; conditions: both partners purified
T1 construct: ubiquitin, the mature protein; cloned into pET-3a, expressed untagged; Some pull-downs used a Cy3-labelled variant with an added N-terminal Met-Cys; also called Ub^R; Ub^D; source: E. coli BL21 (DE3), purified (HiTrap SP HP, Superdex 75)

ubiquitin [2] = target: T1, ubiquitin; assay: pull-down; GST-Ark2C proteins immobilised on Glutathione Sepharose mixed with ubiquitin; PBS pH 7.4, 0.2% Tween 20, 2 mM DTT, 4 °C, 30 min; washed four times with PBS; conditions: both partners purified

Row | Binder | binding result (ubiquitin [1]) | binding result (ubiquitin [2])
1 | Ark2C RING domain (residues 255-346), as it stands in the UbArk2C fusion (domain or fragment, human, UniProt Q6ZSG1 255-346, looked up, Ark2C (RNF165), human, RING domain, residues 255-346; Used for the pair rows of the Ark2C part of the fusion m2 (structures and cross-links); also called RNF165; source: E. coli BL21 (DE3), purified, as part of the UbArk2C fusion) GAVQNTIERFTFPHKYKKRRPQDGKGKKDEGEESDTDEKCTICLSMLEDGEDVRRLPCMHLFHQLCVDQWLAMSKKCPICRVDIETQLGADS | binds | –
2 | GST-Ark2C-ΔAcidic (Δ283-291) (domain or fragment, human, UniProt Q6ZSG1 255-346, looked up, Ark2C (RNF165), human, RING domain, residues 255-346, without most of the acidic residues of the β3-RING loop; source: E. coli BL21 (DE3), immobilised on Glutathione Sepharose resin; not shown: GST, N-terminal, kept) GAVQNTIERFTFPHKYKKRRPQDGKGKKEKCTICLSMLEDGEDVRRLPCMHLFHQLCVDQWLAMSKKCPICRVDIETQLGADS | – | binds
3 | GST-Ark2C^KK/AA (Lys271 and Lys272 to alanine) (domain or fragment, human, UniProt Q6ZSG1 255-346, looked up, Ark2C (RNF165), human, RING domain, residues 255-346; The functional row uses this molecule, although the activity assays were done with the protein after cleavage of GST; source: E. coli BL21 (DE3), immobilised on Glutathione Sepharose resin; not shown: GST, N-terminal, kept) GAVQNTIERFTFPHKYAARRPQDGKGKKDEGEESDTDEKCTICLSMLEDGEDVRRLPCMHLFHQLCVDQWLAMSKKCPICRVDIETQLGADS | – | binds
